The values that follow come from patent US5503975, “Mechanism based inhibitors of DNA methyltransferase” (City of Hope).

The data set addresses DNA (cytosine-5) methyltransferase (Homo sapiens, UniProt P26358 P26358:1-1616). Description: tritiated AdoMet methyl transfer, 37 C, HEPES pH 7.0, 50 mM NaCl, 75 uM spermine; methyl at short arm end stimulates rate. The following applies: tags: none; purified from human placenta (partially purified/crude preparation for the covalent complexes); gapped foldback with L5 linker loop. The procedure:
For the determination of initial velocities with oligodeoxynucleotide substrates, the enzyme was dialyzed for 3 hours in a Hoefer microdialyzer (Health Products Inc., Rockford, Ill.) against 38 mM glycine, 17% v/v glycerol, 5 mM Tris, 10 mM β-mercaptoethanol, pH 7.8 at 4° C. The final reaction volume of 100 μl contained: 0.4 μg total DNA, 50 mM HEPES pH 7.0, 50 mM NaCl, 2 mM DTT, 75 μM Spermine, 10% v/v glycerol and […] [^3H]AdoMet (Amersham, 15 Ci/mmole). Reaction mixtures were preincubated at 37° C. for 15 minutes before the addition of 44 U of DNA methyltransferase to initiate the reaction. The reaction rate was linear under these conditions for 30 minutes. After 20 minutes of incubation, the reactions were stopped by the addition of 5 ml of cold TCA (5% w/v TCA containing 5 mM potassium pyrophosphate). Tritium incorporated into TCA insoluble DNA was determined as previously described (Smith, S. S., supra).

Sequence of DNA (cytosine-5) methyltransferase (P26358 whole entry, one chain of several): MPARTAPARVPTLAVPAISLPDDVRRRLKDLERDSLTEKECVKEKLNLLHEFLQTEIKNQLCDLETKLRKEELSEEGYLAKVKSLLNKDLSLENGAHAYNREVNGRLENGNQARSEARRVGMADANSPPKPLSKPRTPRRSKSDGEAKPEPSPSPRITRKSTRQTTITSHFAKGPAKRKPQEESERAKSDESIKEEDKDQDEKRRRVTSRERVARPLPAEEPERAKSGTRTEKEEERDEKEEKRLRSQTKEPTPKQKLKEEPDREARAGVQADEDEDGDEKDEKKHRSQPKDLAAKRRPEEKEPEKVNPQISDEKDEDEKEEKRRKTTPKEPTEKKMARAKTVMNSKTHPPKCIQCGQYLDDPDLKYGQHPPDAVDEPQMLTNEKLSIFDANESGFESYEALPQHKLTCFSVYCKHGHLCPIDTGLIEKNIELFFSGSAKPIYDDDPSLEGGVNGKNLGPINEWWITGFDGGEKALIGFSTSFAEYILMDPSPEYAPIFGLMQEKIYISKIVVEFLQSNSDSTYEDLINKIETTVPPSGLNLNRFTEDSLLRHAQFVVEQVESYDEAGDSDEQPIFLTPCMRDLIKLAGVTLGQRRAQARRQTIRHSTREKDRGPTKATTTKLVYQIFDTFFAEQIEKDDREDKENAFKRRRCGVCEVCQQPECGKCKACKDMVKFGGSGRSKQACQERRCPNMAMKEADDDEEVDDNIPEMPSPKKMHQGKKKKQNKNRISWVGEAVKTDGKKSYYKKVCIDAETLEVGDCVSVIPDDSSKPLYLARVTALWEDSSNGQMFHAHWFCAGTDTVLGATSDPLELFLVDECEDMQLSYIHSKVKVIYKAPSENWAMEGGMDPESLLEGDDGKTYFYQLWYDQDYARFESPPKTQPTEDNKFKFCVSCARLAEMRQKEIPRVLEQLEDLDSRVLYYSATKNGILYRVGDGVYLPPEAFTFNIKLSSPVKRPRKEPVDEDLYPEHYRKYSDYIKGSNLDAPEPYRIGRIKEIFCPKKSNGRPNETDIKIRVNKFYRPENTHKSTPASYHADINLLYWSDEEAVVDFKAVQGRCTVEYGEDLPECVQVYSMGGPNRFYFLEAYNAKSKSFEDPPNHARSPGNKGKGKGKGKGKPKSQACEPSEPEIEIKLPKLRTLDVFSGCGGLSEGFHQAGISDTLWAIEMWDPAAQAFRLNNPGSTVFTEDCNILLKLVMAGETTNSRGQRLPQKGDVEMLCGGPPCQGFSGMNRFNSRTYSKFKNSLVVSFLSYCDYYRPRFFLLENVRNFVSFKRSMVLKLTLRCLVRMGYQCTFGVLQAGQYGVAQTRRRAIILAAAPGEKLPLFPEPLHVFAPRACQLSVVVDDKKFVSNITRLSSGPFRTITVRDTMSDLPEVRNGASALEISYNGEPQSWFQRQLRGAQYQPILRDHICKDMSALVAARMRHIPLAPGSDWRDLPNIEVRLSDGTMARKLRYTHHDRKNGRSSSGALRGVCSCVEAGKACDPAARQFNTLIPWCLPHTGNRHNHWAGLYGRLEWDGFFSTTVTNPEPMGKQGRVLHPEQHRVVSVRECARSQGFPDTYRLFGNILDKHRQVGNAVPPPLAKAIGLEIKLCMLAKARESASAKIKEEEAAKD

B1: 48L-1 (structured_DNA)
DNA: TCGAGGCCAGGTAGCCCGGATCTGGTGGACGTCCACCAGATCC
modifications: five non-nucleotide linker units between 30mer and 13mer; 5mC at end of short arm
As for B1, the activity was more than 100 fold stimulation.
